Publication PMC10536698

Tested on: CcpA (Streptococcus agalactiae GD201008-001), ORF:5b4dc1e2
Experiment: EMSA
Conditions: EMSA: 20 mM Tris-HCl pH 7.5, 30 mM KCl, 1 mM DTT, 1 mM EDTA, 10% glycerol, 20 uL, 30 min at 37 C; 10% PAGE in 0.5x TBE on ice

Sequence	binding
AAGTTTTCTCCTTTTGTATTACATTCTAGAGACTAAAGGAGATGTTGAAAATTTCTCCTAATCCCTTTAAATAACATTCTAATCATATCATAAATGTCTATAATTTTAAATTGTGAAAACGCCTTTTTTATGATAAACTTAAAAGTGGACTTTCTATATGAAATCTAGAAAAAAATTGAGGTATAAAC (double strand) [luxS promoter]	binds
AGTATTTGTAAAAGCTAATCTTTAGATTAGGCTTTTTTAGTTTATTGATAGTTTTTGGAAGAAAATGCTTGACATTGAAAGAAAAAGAGATATAATTAAATTGCAAACGATTTCAATTCAAGGAGGGAC (double strand) [fruRKI promoter]	binds
